# T1: MORC4 (Homo sapiens, UniProt Q8TE76)
# T1 construct: the ATPaseCW cassette (aa 29–486) of human MORC4 (Q8TE76); GST (cleaved yes); made in house; host or cells: E. coli Rosetta2 (DE3) pLysS or BL21 (DE3) RIL
# T1 sequence (Q8TE76 1-937): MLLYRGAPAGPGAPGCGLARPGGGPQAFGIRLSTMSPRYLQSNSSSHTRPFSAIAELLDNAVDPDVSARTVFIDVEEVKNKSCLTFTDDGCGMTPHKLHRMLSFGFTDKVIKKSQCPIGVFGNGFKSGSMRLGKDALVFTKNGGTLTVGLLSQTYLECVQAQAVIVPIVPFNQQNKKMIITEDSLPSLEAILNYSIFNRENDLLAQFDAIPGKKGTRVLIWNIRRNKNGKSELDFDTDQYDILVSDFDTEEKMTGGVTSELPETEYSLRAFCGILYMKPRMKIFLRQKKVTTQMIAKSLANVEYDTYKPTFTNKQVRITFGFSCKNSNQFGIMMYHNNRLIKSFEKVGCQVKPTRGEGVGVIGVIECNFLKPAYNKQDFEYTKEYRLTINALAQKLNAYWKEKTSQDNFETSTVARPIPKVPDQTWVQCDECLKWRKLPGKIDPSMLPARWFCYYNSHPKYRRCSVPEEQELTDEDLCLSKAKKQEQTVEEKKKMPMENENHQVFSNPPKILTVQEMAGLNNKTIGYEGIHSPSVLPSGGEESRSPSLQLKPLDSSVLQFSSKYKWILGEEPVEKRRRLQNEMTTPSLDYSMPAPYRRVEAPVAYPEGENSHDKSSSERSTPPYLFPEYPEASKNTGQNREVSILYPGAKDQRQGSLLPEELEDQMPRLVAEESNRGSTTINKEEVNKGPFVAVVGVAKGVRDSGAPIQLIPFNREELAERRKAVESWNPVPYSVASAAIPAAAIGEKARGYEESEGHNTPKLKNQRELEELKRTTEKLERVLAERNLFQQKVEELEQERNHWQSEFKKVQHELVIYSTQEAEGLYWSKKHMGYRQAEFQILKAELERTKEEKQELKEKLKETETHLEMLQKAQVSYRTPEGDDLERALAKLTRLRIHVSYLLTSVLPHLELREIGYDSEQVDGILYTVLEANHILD
# Key:
# MORC4 [1] = molecular target: T1, MORC4; experiment: ATPase activity assay (EnzChek Phosphate Assay Kit); type: biochemical; set-up: Rate of ATP hydrolysis: unit not given here; conditions: Supp. Fig. 1
# Description: (§1) To determine whether MORC4 is catalytically active, we produced the ATPase domain of human MORC4 and examined its ability to hydrolyze ATP in enzymatic assays (Fig. 1a–c). Following incubation of the ATPase domain with ATP, 2-amino-6-mercapto-7-methylpurine ribonucleoside and nucleoside phosphorylase, the release of inorganic phosphate generated by the hydrolysis of ATP to ADP was monitored by measuring an increase in absorbance at 360 nm.
# (§2) The ATPase assays were performed using the EnzChek Phosphate Assay Kit (Invitrogen, item # E6646). The reactions were carried out on 1.0 µM of MORC4 His-ATPase or ATPaseCW (WT and mutants), in the presence and absence of 1 µM 601 DNA or 50 µM of unmodified H3 or H3K4me3 peptide (aa 1–12 of H3) in a buffer containing 50 mM Tris-HCl (pH 7.5), 150 mM NaCl, 1 mM MgCl2, 0.1 mM sodium azide, 200 µM MESG, and 1 U of PNP. In assay with the nucleosome, 0.5 µM of MORC4 ATPaseCW and 0.5 µM NCP167 (Activemotif) were used. The reaction was started by adding 2 mM ATP to the mixture at room temperature, and the release of inorganic phosphate was monitored by measuring the absorbance at 360 nm on a Nanodrop 2000c spectrophotometer (Thermo Scientific). In the presence of inorganic phosphate, produced by the hydrolysis of ATP to ADP, MESG is enzymatically converted to ribose 1-phosphate and […] by PNP, resulting in a shift in the wavelength absorbance from 330 nm for MESG to 360 nm for the product. The rate of ATP self-hydrolysis was measured in parallel. Error was calculated as the S.D. of at least three separate experiments (two in Fig. 4j).
# MORC4 [2] = experiment: as above; type: biochemical, human; set-up: Rate of ATP hydrolysis: unit not given here
# Description: as §1, §2
# NCP147 = experiment: Fluorescence polarization binding to NCP147
molecule,measurement,setting,value
"ATPaseCW: ATPaseCW cassette (aa 29–486) of human MORC4 (Q8TE76) (protein, left off: GST, end not stated, cleaved) GIRLSTMSPRYLQSNSSSHTRPFSAIAELLDNAVDPDVSARTVFIDVEEVKNKSCLTFTDDGCGMTPHKLHRMLSFGFTDKVIKKSQCPIGVFGNGFKSGSMRLGKDALVFTKNGGTLTVGLLSQTYLECVQAQAVIVPIVPFNQQNKKMIITEDSLPSLEAILNYSIFNRENDLLAQFDAIPGKKGTRVLIWNIRRNKNGKSELDFDTDQYDILVSDFDTEEKMTGGVTSELPETEYSLRAFCGILYMKPRMKIFLRQKKVTTQMIAKSLANVEYDTYKPTFTNKQVRITFGFSCKNSNQFGIMMYHNNRLIKSFEKVGCQVKPTRGEGVGVIGVIECNFLKPAYNKQDFEYTKEYRLTINALAQKLNAYWKEKTSQDNFETSTVARPIPKVPDQTWVQCDECLKWRKLPGKIDPSMLPARWFCYYNSHPKYRRCSVPEEQELTDEDLCLSKAKKQE",Rate of ATP hydrolysis,"MORC4 [1]; 0.5 µM MORC4 ATPaseCW + 0.5 µM NCP167, mean of 3",0.468
same,Rate of ATP hydrolysis,"MORC4 [1]; 0.5 µM MORC4 ATPaseCW + 0.5 µM NCP167, replicate 1",0.5696
same,Rate of ATP hydrolysis,"MORC4 [1]; 0.5 µM MORC4 ATPaseCW + 0.5 µM NCP167, replicate 2",0.408
same,Rate of ATP hydrolysis,"MORC4 [1]; 0.5 µM MORC4 ATPaseCW + 0.5 µM NCP167, replicate 3",0.4265
same,Rate of ATP hydrolysis,"MORC4 [1]; 0.5 µM MORC4 ATPaseCW, without NCP167, mean of 3",0.2339
same,Rate of ATP hydrolysis,"MORC4 [1]; 0.5 µM MORC4 ATPaseCW, without NCP167, replicate 1",0.309
same,Rate of ATP hydrolysis,"MORC4 [1]; 0.5 µM MORC4 ATPaseCW, without NCP167, replicate 2",0.1285
same,Rate of ATP hydrolysis,"MORC4 [1]; 0.5 µM MORC4 ATPaseCW, without NCP167, replicate 3",0.2641
same,Rate of ATP hydrolysis,"MORC4 [2]; + H3K4me3 + 601 DNA, Fig. 1c, mean of 3",0.3353
same,Rate of ATP hydrolysis,"MORC4 [2]; + H3K4me3 + 601 DNA, Fig. 1c, replicate 1",0.3507
same,Rate of ATP hydrolysis,"MORC4 [2]; + H3K4me3 + 601 DNA, Fig. 1c, replicate 2",0.3597
same,Rate of ATP hydrolysis,"MORC4 [2]; + H3K4me3 + 601 DNA, Fig. 1c, replicate 3",0.2954
same,Rate of ATP hydrolysis,"MORC4 [2]; + H3un + 601 DNA, Fig. 1c, mean of 3",0.3154
same,Rate of ATP hydrolysis,"MORC4 [2]; + H3un + 601 DNA, Fig. 1c, replicate 1",0.2842
same,Rate of ATP hydrolysis,"MORC4 [2]; + H3un + 601 DNA, Fig. 1c, replicate 2",0.3368
same,Rate of ATP hydrolysis,"MORC4 [2]; + H3un + 601 DNA, Fig. 1c, replicate 3",0.3251
same,Rate of ATP hydrolysis,"MORC4 [2]; no DNA, no peptide, 1.0 µM protein, 2 mM ATP, pH 7.5, room temperature, absorbance 360 nm, Fig. 1b,c, mean",0.09309
same,Rate of ATP hydrolysis,"MORC4 [2]; no DNA, no peptide, Fig. 1b,c, replicate 1",0.08409
same,Rate of ATP hydrolysis,"MORC4 [2]; no DNA, no peptide, Fig. 1b,c, replicate 2",0.08589
same,Rate of ATP hydrolysis,"MORC4 [2]; no DNA, no peptide, Fig. 1b,c, replicate 3",0.1093
same,decrease in binding to NCP147 compared to NCP207,NCP147; NCP147 vs NCP207 (peer review file),2 fold
same,S1/2,"NCP147; fluorescence polarization, pH 7.5, 75 mM NaCl, room temperature, 10 min, mean of n = 3",0.4 µM
